Measured values reported in a protein production outcome set (Wang et al. 2014).

Test: label from the status in PepcDB records

For “MAKTSRPSKAKQQALVHQLIGKIDAQPEDYHAYYELVVLLTAGQDFEQAEALAMKALGKFDHQQPAADYLRYALGNVYYQAQTYDKALPYYQQITDDQLKQDAYLMSAQALMAQHDYQHALVWAITAQEARPQQLDANLLVADILLALGNNQQASDYYQRAYKIDSQSGRAAFNLGLTAMVLGKPYATWFERAQKLDSQYFKSHQQQLTDIEKMLAAQADNQNH”, the protein production was “failed”.
With “MTPDFQIVTQRLQLRLITADEAEELVQCIRQSQTLHQWVDWCHALFSQQEAEQFIQATRLNWVKAEAYGFGVFERQTQTLVGMVAINEFYHTFNMASLGYWIGDRYQRQGYGKEALTALILFCFERLELTRLEIVCDPENVPSQALALRCGANREQLAPNRFLYAGEPKAGIVFSLIP” the protein production was “not failed”.
For “MTGTSDDEEGKWKNRSTTLRRLGRQYSPDVTPEVASRRLKQWIVGNPVLLGLLHENGWTASRRVLTPKQVEQIVRVLGEP”, the protein production was “failed”.
In the case of “MGKVSFGFLGLMLVVVVIGVVECRRFEKETLGGGGGGGLGGGFGGGKGFGGGIGAGGGFGGGAGGGAGGGLGGGAGGGGGIGGGAGGGAGGGLGGGAGGGLGGGHGGGIGGGAGGGAGGGLGGGHGGGIGGGAGGGSGGGLGGGIGGGAGGGAGGGGGLGGGHGGGIGGGAGGGAGGGLGGGHGGGIGGGAGGGSGGGLGGGIGGGAGGGAGGGGGAGGGGGLGGGHGGGFGGGAGGGLGGGAGGGTGGGFGGGAGGGAGGGAGGGFGGGAGGGAGGGFGGGAGGGAGGGAGGGFGGGAGGGHGGGVGGGFGGGSGGGFGGGAGGGAGGGAGGGFGGGGGAGGGFGGGF”, the protein production is reported as “failed”.
For “MDILKLLMVAILIGLTAFFVAVEFAIIKVRSSRIDQLVSEKRRGALAAKKVTSNLDEYLSACQLGITITALGLGWLGEPTIKHLLEPLFLKLNLSPAIASTVSFIIAFAVITFLHVVIGELAPKTFAIQRAEQVSLLLSKPLIYFYRIMYPFIWALNGSARLVTGLFGLHPASEHEVAHSEEELRLILSESYESGEINQREFKYVNNIFEFDNRVAKEIMVPRTEVIGLYEDEPFETHIKIIAQEKYTRYPVFGEDKDEIIGMVNVKDLFIRYIDGNRDEECSITPYTRPVIEVLENIPIHDLLLQMQRKHIPLAVLYDEYGGTAGIVTLEDILEEIVGEIRDEYDEDEHPPIEHISEGCKIVEGKVLISEVNDLFGIHLIADDVDTIGGWIMVQKQIVAEGDIIEKHGFSFKVLEKDMHQIKRVEIKKVEE”, the protein production was “failed”.
For “MKNICFINGSPRSKKANSTLYLNLIDKSLDSKNYTKYYIDTTSSIKGDLESTFKTLLDADYIILAFPLYVYSMPSLLVRFLEDYYIYLKNKDTISQKTNLYAVVNCGFPDAKMNVEALKIVFNCCKKLNINFRFGIGIGAGEFVNFSKNNPLLNKLSSCVYKSINKITYDIENQVSIEINNIFVNPKIPRRLFFIFGHIFWKKWAKRNGIKISALFDKPLEHHHHHH”, the protein production was “failed”.
For “MVYLMLCLKIWRVVLKKNKTLVFISLFLLSVFLGGFYFYFDPNILYLLKGEKDFSKLIMGIDFYIDKKKFADAKKAMLFSSYYANTEFKWLALAKRAKLWALNTGDYHLMGEIVNLGVKVLPGNLKLRALEVYSKLKIGLLKDAYRIANEYLLNSEEYQGLYDEVFIKNLSSDNGILDFNKFIDKIYKEKDARIFEEIGLNLKNNAFLINAMLLYIEKKNIDSAKRILFRIKEDKSFLKELAYISYNLNDLDYTISNLKSIKNEEDPTLLFLLADAYFKKGDIKNAKNEYLKLYTRFPDYNVLVYLNLALIANSENDYKRAISYLNKANEVFKDNKIINYYLANIYFGIKNYFKANEIIANYKEDPLFFKLYFALNYANSKYEAKKSYLWRLFYKTEYNSSIAQFLAWNLLLYSDLKDLDLFFRIYNFSENKQDWYDFYKFYYYFLKRDFISSKKIIFDNKSQKYMFGIYYNLGVLSFSEKDYEEAERYFNKGISLLPSSFYDKDSTTPYERELVSKIYLKQGINYLYLGKMEKGKESILASYSFYETDEGRLYKNMIDTLRERNLNFD”, the protein production was “failed”.
With “MLFDEKEILAITRWAKLYANQSPDRILLGSNDIPPEYRAAVATQIELWPRLRNKLPQWAGISSLYIPSRLSLEQSSGAVTSSYKSRFIREGTKVVDLTGGLGIDFIALMSKASQGIYIERNDETAVAARHNIPLLLNEGKDVNILTGDFKEYLPLIKTFHPDYIYVDPARRSGADKRVYAIADCEPDLIPLATELLPFCSSILAKLSPMIDLWDTLQSLLHVQELHVVAAHGEVKELLVRMSLNEATIPPEKVPIHAINLLLEDTVIPFIFTMEEERSISIPYTDSIDKYVYEPHTALLKAGAFKTVAYRLGLRKLHPNSHLYTSEAYESAFPGRTFVLEEIIPFSTSVLKQLRKVVPQASISCRNFPLSPIELRQRSKMADGGEKTLMGTTMADGKKVLLLLRKAE” the protein production was “not failed”.
In the case of “MRKISIVIPVYNTEKYLKLSVDSVLSQSYQDWELILVDDGSKDGSGAICDKYASEDSRIKVYHTVNQGVTAARGYGVEQSTGEWICFLDADDTLADDALQVMLGKSADCDIVIGNKRIVSGNDVTEEWMNQDDRQLQAVEFLDGLIRNKISQYITGRIFRRILFDNGTICIPRELIMAEDFIMNVQLGNKAKKIAVIRDMVYGYHVYGESVSHTFRTNLEYESRFCDCLFSALKTGGYYEEVKEAFTFQKVRALKSAFMAQQGRVNLRHPFLQEVRKEAKSIGLSRGWKLFLYLLPLKYIGYIFFRSLNKLEHHHHHH”, the protein production is reported as “not failed”.
In the case of “EYQVLNLFICGIGTVGGSLVEQIRCQQQKLMMENGLKLHVVGIIDAAKAMFSREGFDLANFREELQKKGKDSNLQTIRDEIVGMNIFNSVFVDCTASPDIASLYKDLLQHNVSVVAANKIAASSAYENYRELKTIARQRGVKYLFETNVGAGLPIINTINDLIHSGDKILKIEAVLSGTLNYIFNK”, the protein production is reported as “failed”.
In the case of “MSKVIIPKIVGHRGVGKEGLAPENTLRSFVLCMERNIPYIETDLRVCKTGEIVLFHGTPEGTIPFYKDGTSRIGDLSLEELKRLDVGGGHTIPSLEELFVAIEEQKFNLKLNLELKGEEWKRKESGDHQRLLLLVEKYHMQERVDYCSFHHEALAHLKALCPDVKITYLFNYMGQPTPLDFVEQTQKACYGDANGVSMLFHYLTKEQVCTAHEKGLSVTVWMPWIFDDSEEDWKKCLELQVDLICSNYPFGLMNFLSNISE”, the protein production is reported as “not failed”.
With “MLMNLPEILKNQKARARKFKPVKMSKRTELWYRQQLKQFVKMMTNDVERALQQPQGSFFMDDAKGFQAISAKALMKVLEKYEKSDRTSQAENIANGFVSRGDAQNHAEVSTNLKNQTGIDLSAYLRNSPNITEKVNALTAGNIQLIKSIRSQYLDKVQNAVMQAMVRGSLNKDLAAQIKDLGKTTEKRAMFIARDQSSKLNAALTQARHEEVGIKKYMWSASLDERVRESHAEKDGQIFEYANPPADTDHPGHDFNCRCVQIPVLDNNEQIVKNSPIVSQQEKQQMRSEWSDDFPDTIIDRKLGDATSHPLYENAKKGSIEDAYQLAKDLVTDDAVNKLKQLVGNKNAILIPVHAEEAVGQNMIPVAIATVLSKKLHIPVDLSIVQATKVSRTGGDGWHRLVYSPAFDGIVPKDKYAIILDDTQTQGGTLASLKGYIIKEKLLHLML” the protein production was “failed”.
For “DSSMKTDVVEHDKDYVVTAELPGFKKDDIHVDYHDETLRISGKTEVNQSAKDDDGRILRQERRSQNVARSFYLPGIDLKNVKATYADGILTLTLPKQTEVDGSHEISID”, the protein production was “failed”.
With “GSKGSRIELGDVTPHNIKQLKRLNQVIFPVSYNDKFYKDVLEVGELAKLAYFNDIAVGAVCCRVDHSQNQKRLYIMTLGCLAPYRRLGIGTKMLNHVLNICEKDGTFDNIYLHVQISNESAIDFYRKFGFEIIETKKNYYKRIEPADAHVLQKNLKVPSGQNADVQKTDN” the protein production was “failed”.
For “MKDIYELLNDIDIDEKELEEIEASEIEKEKVKRNVKQSIRTKKKMKSWKKGVAAASILVGLSVTTLGIGFPTYAGGLPIVGDIFRFLDNGRTGLYENYKEFSTELNMTRESNGVKVTINDVISDGRTLSITYSLESEQDLGDDPIILGGLDIMDAHGSSGSGKMTKVTEKKYVGMVTTTHHDSNKKDKVNFRWNIEGIEIPDRKKSIQGHWNFALTVKSMDSKERTIGGSSEKEGIKANMEKVAMSPVSFILYYNQEVSKGARKEWDSVDVELTVKDDLGNDYSGEGNGGSGNDPYNIRWSATFQKLNENATKLIVTPRVHLRVHTPENHGGVEYVNGKEKKIEVPNKEAKKKDIVLDDIVIDLKK”, the protein production was “not failed”.
For “MTVWFVAAVAVLIIELLTGTVYLLVVSAALAGSGIAYGLTGSTPAAVLTAALLSALGIWFVHAKTAVGKVETDSYQDLDTGKYAEILRYTGGNRYEVFYRGTHWQAQNTGQEVFEPGTRALIVRKEGNLLIIANP”, the protein production was “failed”.
In the case of “MTRPIGIYEKATPKHFNWLERLQFAKELGFDFVELSIDESDERLARLEWSKEERLELVKAIFETGVRVPTITFSGHRRFPMGSNNPEKEARAMDMMKKCIVFAQDIGIRNIQLAGYDVYYEEKSPETRARFIKNLRQACTWAEEAQVILSIEIMDDPFMNSIEKYLAVEKEIDSPYLFVYPDTGNVSAWHNDLWSEFYNGHRSIAALHIKDTYAVTETSKGQFRDVPFGQGCVDWEEMFAVIKKTNYNGPFLIEMWSENCETVEETRAAIKEAQDFLYPLMEKTGVK”, the protein production is reported as “failed”.
In the case of “MAEEKVKDEAMQIMGMFQILPRLVVFDLDYTLWPFYCECRSKREMPSMYPQAKGILSALKEKGIEMAIASRSPTSDIANTFLDKLNIKPMFVAKVSKMGVTSILVGDGVTLGAFRQGLTEFTQNHNSIEKNKQVWRDKYSGKPTSSETDKD”, the protein production is reported as “failed”.
For “MQEEFMKKNSIIAGLFVFCITTAGIGYTVYNSVYSDRQKHRINETAKLDSAKAPNELKDGEYTASAEGYEGPITVKVVIKEGKIFSVEVLSHNETPEYYEMAKKILQTIVEKNTFNVDSISGATVTSDAIKVAVYKALVQAGAKTSDVAEGLEKENEELRDKEKAKLLAKQSSAVAGKVGFNRNNLKDGTFIGVGRGYNGLIKVSISIKNGVIYDARVISHSDDYPYFTWASSVLNKVISGSTNIDTVSGATVSSRGILNAVKDALRKASNGNNSLDINSPDETEQNIPRQNRREIEQIKKYFKGLKDGVYFGKSNGYYTNSIEVKVTVKDGKIAKIELTKNDDDESYFDNKKAGILGERIISNQSTNIDTISGATTSSKGFINAVVNALEKAVDSNGSDADKYIYSPKTIIANVGETIGLQKIRDALEKLPEDVQINIKNNADTSSEGKTKIVVELIFKDNSKKIVEIPVLVNSKVDGSYKFLSAEEVKNLDKNVNYPDGVYYGDSYGFVSNKPIPVKVTIKNNKIENVELVKEELNRLKGVTSPGNVDDGGIFQEKFYTIIDRIKNMQKFESLIYKFEVLRDATSKVMEEARGKEQTVEVYRAALDKVIGKHNFGKWGLSIDESHLKGERNIHDRIFSLLKVYVKEELGYDGSDYDAVSGATFTATGTATSIKNALLKAKNFDFYDMRVDDSNFKTSYKEGDKLDLKDLKVTIYKKNNQKITVSYSDFGKYGLKVVDEYNKELKDGLVLNKENLGYNVTDGLRLKVVHEESKSFKFLNTILISKSTTKNFEISGIKIKAKDGSEWYDTKGYNTTDFIQNLTVSKEVAEKLNNKEIEFKIIAKDKKSSEEIEIPLRQAQNKTLIADFVSGEYTLDVIEKYKGVLFNNTFRIKTKVEGKIPKAFLYKETPETLIISKGTEITESKIRSVLKNLPDKTDISVLRGVDVNKVNETVLQKLLIKLKFDDGSEKEIEIDVIVKEKVISMADKYVYKPKDLITIKGKEVELSHLKNHLDDLPEGTKIEIIEKANVSEVNETGTLMKVSLEFTDKSTKDISINVVVKDTAPNKAEEFKILYPEIKNEIVNVVVKDPKYGNMKNFAETVKWGAFSDFAINRDLKLKSRSADISRIEVLKEPDRSKLGDQKGKIRLSFNDGSKLELEISVKIVPYPVYKIFRLTSNKTQYRLEDKFNLNDLKVTLFISNKLENESDWDTTGTPVLNIPYSDFYLFGIKVVDLDSKKEIENNSIISTLIKNKKLSVGAYCENLIQKNNYESGKKLVEIFNIKITNIDEWKESKKNIVEIKDEKNSKKADDSNKTGKVMASKKEIKNVDNLDNTSEKNKTIESENTTKDKVQRKDSDSGGKLSDDSSEKQNLKTNEKED”, the protein production was “failed”.
